From patent publication US20050227302A1, “Induction of apoptosis via ARTS-IAP complexes” (priority 2004, published 2005) come the findings set out here.

For assay [1], the target named is T1, XIAP (Homo sapiens, UniProt P98170).
T1 construct: made in house; host or cells: bacteria (pGEX-XIAP plasmid obtained from Dr. Colin S. Duckett)
The experiment in a line: GST pull-down assay of ARTS and XIAP. It counts as binding. An excerpt: For the glutathione-S-transferase (GST)-pull down assays, ARTS was subcloned into the pGEX 4T™ (Pharmacia Biotech) construct; GST-ARTS fusion protein was generated by Polymerase Chain Reaction (PCR) using the following primers: • BamHI-5′-[…]-3′ (SEQ ID No: 4) and • EcoRI-5′ […]-3′ (SEQ ID No: 5) and cloned into BamHI and EcoRI sites in pGEX 4T. Preparation of Beads
For in vitro binding studies, recombinant GST-ARTS or GST-XIAP fusion proteins were purified from bacteria. After sonication, 0.1% Triton X-100 and protease inhibitors (Mini-Complete™, Roche) were added to the bacterial extract followed by 10,000 rotations per minute (RPM) centrifugation. Supernatants of bacterial extracts were collected and incubated in the presence of glutathione-Sepharose 4B beads (Amersham Biosciences) for 30 minute at 4° C. The beads were washed three times.
Cells were lysed in RIPA buffer (150 mM NaCl, 50 mM Tris-HCl (pH 8), 1% NP-40, 0.1% SDS, 0.5% deoxycholate acid containing protease inhibitors (mini Complete, Roche)). Samples were divided into two tubes; one was rotated for 4 h at 4° C. with GST-ARTS fusion protein coupled with the glutathione beads, or GST-XIAP fusion protein. The second tube was incubated with glutathione beads alone (negative control). Samples were centrifuged at 4000-RPM at 4° C. for 4 minute and washed five times in lysis buffer, then boiled in sample buffer for 5 minutes to elute bound proteins Proteins were separated on 12.5% SDS-PAGE gel followed by Western blot analysis using monoclonal anti-ARTS antibody (Sigma), monoclonal anti-XIAP antibody (BD Transduction Laboratories) or monoclonal anti-myc antibody (Clontech).

For assay [2], the system named is COS-7 cells. The experiment in a line: Immunofluorescence of ARTS and XIAP localization in COS-7 cells. It counts as cell-based, African Green Monkey. The settings on record: apoptotic cells over-expressing ARTS versus not over-expressing. On the procedure: Cells were fixed with 4% paraformaldehyde in PBS for 20 min at room temperature, washed with PBS, permeabilized with 0.5% Triton-X in PBS for 5 min, and incubated with primary antibodies for 2 hours at room temperature (rabbit polyclonal anti-ARTS (1:20,000; Sigma), monoclonal anti-ARTS, and/or monoclonal anti-XIAP (1:500; used in subsequent Examples). Cells were washed three times with PBS/0.1% Triton-X and incubated with FITC conjugated anti-mouse and Rhodamin^TX-conjugated anti-rabbit secondary antibodies (Jackson). Images were analyzed using a confocal laser microscope (Zeiss LSM 510). Mitochondria were visualized with MitoTracker® Red CMXRos (Molecular Probes/Invitrogen).
For caspase inhibition, we added […] of BOC-Asp(Ome)CH2F (Enzyme Systems Products) one hour prior to addition of the apoptotic agents.

Assay [3] relates to XIAP. The experiment in a line: Co-immunoprecipitation of ARTS-XIAP complexes in COS-7 cells. The settings on record: un-transfected COS-7 cells, apoptosis induced with staurosporine, IP anti-ARTS. It counts as cell-based, African Green Monkey. On the procedure: Protein extracts were prepared with lysis buffer (150 mM NaCl, 50 mM Tris-HCl (pH 8), 1% NP-40, 0.5% deoxycholate acid) with protease inhibitors. Lysates containing equal amounts of total protein were pre-cleared overnight with 1 mg mouse IgG (Sigma) coupled with protein A/G-Sepharose mix (Amersham Biosciences) and the beads centrifuged. Supernatants were immuno-precipitated using 5 μl of anti-ARTS antibody for 4 h, anti-XIAP antibody, rabbit anti-myc antibody, or mouse IgG (negative control). Protein A/G Sepharose beads were added for 1 hour and washed four times with PBS. Antibodies against XIAP (as above), Myc (Santa Cruz), or anti-ARTS (NT) antibodies directed against the common N′ terminus of ARTS and H5 (ProSci Incorporated) were used for Western blot.

Assay [4] has as its system COS-7 cells. The experiment in a line: Active caspase 3 immunofluorescence staining in ARTS-transfected COS-7 cells. It counts as cell-based, African Green Monkey. On the procedure:
K562 and HL-60 cells were grown in RPMI 1640 medium. A549, COS-7 cells were grown in Dulbecco's modified Eagle medium (DMEM) with 4.5 grams/liter (g/L) D-glucose. All cells were grown at 37° C. in a 5% CO2 atmosphere. All media were supplemented with 10% fetal calf serum (FCS), penicillin (100 U/ml), streptomycin (100 micrograms (μg)/ml) and […] millimolar [mM]) (Biological Industries, Israel). pEF1-AU5 and pEF1-AU5-ARTS constructs were used for all ARTS transient transfection experiments. An AU5 tag was attached to the N' terminus of ARTS as described in ([…] et al, Nat Cell Biol 2: 915-921, 2000). The […] construct was generated by replacing three amino acids ([…]) at the GTP binding site, using site-directed mutagenesis (QuickChangeTM, Stratagene) with the primer: [NT] No: 1). COS-7, K562 and HL-60 cells were transiently transfected using electroporation (EasyjectTM plus-Equibio). A549 cells were transiently transfected using lipofectaminTM (Invitrogen) according to the manufacturer's protocol. The following apoptotic agents were used: TGF-beta (10 ng/ml) for 24 hours in medium containing 1% FCS; […] etoposide for 2 or 16 hours (Sigma); staurosporine (STS) ([…]) for 0-3 hours (Sigma); and arabinoside-c (ara-C, cytosar) (Pharmacia) at […] for 4 hours. In the case of transiently transfected cells, agents were added forty hours after transfections. […]

A further assay deals with CIAP. The experiment in a line: Interaction of ARTS with CIAP. Format: binding.

T1 sequence (P98170 whole entry): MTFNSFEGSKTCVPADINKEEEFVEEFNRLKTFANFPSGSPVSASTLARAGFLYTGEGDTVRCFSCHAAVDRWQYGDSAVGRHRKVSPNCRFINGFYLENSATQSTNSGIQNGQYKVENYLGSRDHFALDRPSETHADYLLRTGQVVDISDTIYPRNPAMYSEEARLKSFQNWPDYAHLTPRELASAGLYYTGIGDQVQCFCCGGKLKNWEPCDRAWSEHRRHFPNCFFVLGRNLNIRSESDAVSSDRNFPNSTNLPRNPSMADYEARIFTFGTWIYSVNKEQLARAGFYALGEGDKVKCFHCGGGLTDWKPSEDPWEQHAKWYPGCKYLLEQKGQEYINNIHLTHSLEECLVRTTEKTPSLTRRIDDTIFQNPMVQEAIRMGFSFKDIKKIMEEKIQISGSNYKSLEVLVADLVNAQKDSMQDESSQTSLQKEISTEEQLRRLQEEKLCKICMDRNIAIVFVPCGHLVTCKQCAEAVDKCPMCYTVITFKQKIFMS

B1: AU5-ARTS (other)
chain: MIKRFLEDTTDDGELSKFVKDFSGNASCHPPEAKTWASRPQVPEPRPQAPDLYDDDLEFRPPSRPQSSDNQQYFCAPAPLSPSARPRSPWGKLDPYDSSEDDKEYVGFATLPNQVHRKSVKKGFDFTLMVAGESGLGKSTLVNSLFLTDLYRDRKLLGAEERIMQTVEITKHAVDIEEKGVRLRLTIVDTPGFGDAVNNTECWKPVAEYIDQQFEQYFRDESGLNRKNIQDNRVHCCLYFISPFGHGYGPSLRLLAPPGAVKGTGQEHQGQGCH
notes: Expressed in transfected COS-7 cells and used as lysate or stained in cells; also called pEF1-AU5-ARTS; AU5-tagged ARTS; not shown: AU5 tag attached to the N' terminus of ARTS
As for B1, the “binding to GST-XIAP” value in the assay with XIAP [1] (lysates of COS-7 cells transfected with AU5-tagged construct, Western blot anti-AU5) was “bound to XIAP”. In addition, the “binding of XIAP to GST-ARTS” value with XIAP [1] (lysates of COS-7 cells transfected with pcDNA3 mycXIAP, Western blot anti-XIAP and anti-Myc) is listed as “XIAP bound to ARTS”. In the assay with COS-7 cells [2], the “XIAP staining in the nucleus” value is “significantly higher levels in the nucleus”. Further, the “interaction of endogenous ARTS and XIAP” value in the assay with XIAP [3] is “interact with each other”. In addition, the caspase-3 activity entry in the assay on COS-7 cells [4] (expression of ARTS in the absence of pro-apoptotic stimuli, COS-7 cells) was “little or no effect”; with COS-7 cells [4] (over-expression of ARTS, COS-7 cells treated with etoposide), “increased caspase-3 activity”. Further, the “interaction with CIAP” value in the assay with CIAP was “interact with ARTS”.
